Molecular target: LS-Rg, chimeric protein of the extracellular domain of human L-selectin joined to the Fc domain of a human G2 immunoglobulin (human) (UniProt P14151)
Experiment: competition of unlabeled antibody with radio-labeled 2'-F RNA ligand LF1807 for purified LS-Rg

Sequence of LS-Rg, chimeric protein of the extracellular domain of human L-selectin joined to the Fc domain of a human G2 immunoglobulin (human) (P14151 39-332, change not shown): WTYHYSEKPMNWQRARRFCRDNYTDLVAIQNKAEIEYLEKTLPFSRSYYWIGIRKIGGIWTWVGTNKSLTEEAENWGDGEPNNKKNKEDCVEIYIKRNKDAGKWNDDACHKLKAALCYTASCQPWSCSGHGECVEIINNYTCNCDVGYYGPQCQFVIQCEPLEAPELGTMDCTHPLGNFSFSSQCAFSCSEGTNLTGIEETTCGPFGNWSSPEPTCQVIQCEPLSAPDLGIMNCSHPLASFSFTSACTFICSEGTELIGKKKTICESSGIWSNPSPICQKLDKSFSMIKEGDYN

concentration giving complete inhibition: 300 nM
Substance: DREG-56, blocking monoclonal anti-L-selectin antibody

From patent publication US20090118481A1
